Measured values taken from the supplement of paper PMC10724198.
± gives the standard deviation of the averaged measurements.

Test system: Saccharomyces cerevisiae
Assay: protein stability index of tFT-peptide fusion (C-terminal peptide) (PSI (0-1 scale)); higher = more stable (slower turnover)
Conditions: temperature: 30 C
Experimental: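 MPS profiling in S. cerevisiae of the yeast C-terminome library: the last 12 aa of each annotated ORF are fused to the C-terminus of a sfGFP-mCherry timer, after a GGGS linker. Cells are FACS-sorted into 8 mCherry/sfGFP bins and deep-sequenced. PSI runs from 0 (unstable) to 1 (stable); wild type and das1Δ backgrounds, two technical replicates each.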

[1] = genetic background: das1 deletion

Sequence	protein stability index [1]	protein stability index (genetic background: wild type)
VKNWSKSILGFN [MSC1 C-terminal 12 aa]	0.7095 ± 0.004	0.666 ± 0.021
WQDFVPDEHISQ [VPS501 C-terminal 12 aa]	0.736 ± 0.0053	0.792 ± 0.028
AIAKSIPKRVGL [PUT1 C-terminal 12 aa]	0.718 ± 0.035	0.6998 ± 0.0057
EKMKKNQSIGWF [MRPL25 C-terminal 12 aa]	0.756 ± 0.02	0.73159 ± 0.00064
ECPSVPPTVRAY [SDH1 C-terminal 12 aa]	0.528 ± 0.011	0.55 ± 0.0063
QLIDIAKKMGIL [BIR1 C-terminal 12 aa]	0.678 ± 0.051	0.276 ± 0.0083
KVEFSKSETKTL [MSL1 C-terminal 12 aa]	0.71 ± 0.018	0.6736 ± 0.0014
GVGRIITQPQRY [HUA1 C-terminal 12 aa]	0.7038 ± 0.0018	0.701 ± 0.043
AAVAKQKVSDSK [DHR2 C-terminal 12 aa]	0.664 ± 0.024	0.654 ± 0.024
LESADKKKDVKA [DUS1 C-terminal 12 aa]	0.692 ± 0.0088	0.713 ± 0.015
ISQWREWIDEKL [SRP102 C-terminal 12 aa]	0.679 ± 0.025	0.72 ± 0.029
TILHQQVNSKLH [YHR180W C-terminal 12 aa]	0.7181 ± 0.00078	0.627 ± 0.02
KTIDNLKALMKN [PFD1 C-terminal 12 aa]	0.696 ± 0.0081	0.721 ± 0.019
SLQFIGEETSSL [YDL026W C-terminal 12 aa]	0.708 ± 0.01	0.684 ± 0.012
NSEKDQVPILSS [SSK22 C-terminal 12 aa]	0.702 ± 0.011	0.729 ± 0.041
EIIDNWEKYEQS [FAS1 C-terminal 12 aa]	0.706 ± 0.011	0.7 ± 0.04
QTDGMGLVSWWE [RPC25 C-terminal 12 aa]	0.751 ± 0.011	0.749 ± 0.041

Sequence	protein stability index [1]	protein stability index (genetic background: wild type)
QLQMILFGKKFK [PET9 C-terminal 12 aa]	0.711 ± 0.016	0.701 ± 0.021
DDSSSTDTEERE [SSK2 C-terminal 12 aa]	0.675 ± 0.028	0.683 ± 0.029
QQSPHPVVDNDK [KIP2 C-terminal 12 aa]	0.6922 ± 0.0065	0.682 ± 0.035
VGVERLLNDRFR [ARP4 C-terminal 12 aa]	0.6944 ± 0.0026	0.695 ± 0.028
ENIEVILSNGRM [SNF12 C-terminal 12 aa]	0.676 ± 0.03	0.689 ± 0.037
LPFGCVDDVNRQ [MSK1 C-terminal 12 aa]	0.706 ± 0.05	0.719 ± 0.021
WGIYEELVKRFM [HEM25 C-terminal 12 aa]	0.7094 ± 0.0066	0.707 ± 0.013
VPRFKDIFDDLS [DOA1 C-terminal 12 aa]	0.7313 ± 0.0058	0.719 ± 0.0078
ARMTGETPVAKH [YHM2 C-terminal 12 aa]	0.688 ± 0.033	0.677 ± 0.016
NNLQSFYFDNSN [BCK2 C-terminal 12 aa]	0.689 ± 0.018	0.706 ± 0.03
GDPIDLKEKKLN [RER2 C-terminal 12 aa]	0.705 ± 0.031	0.196 ± 0.032
LLEDQVPVETKA [PYC1 C-terminal 12 aa]	0.551 ± 0.018	0.582 ± 0.0095
TPLGPKPDIRPL [ECM4 C-terminal 12 aa]	0.727 ± 0.03	0.67 ± 0.016
DDKPKIPTMLNA [YME1 C-terminal 12 aa]	0.7003 ± 0.0065	0.671 ± 0.046
SGSVYIGSVFLI [YGR121W-A C-terminal 12 aa]	0.692 ± 0.029	0.6421 ± 0.0012
FILELKNICKCT [MOH1 C-terminal 12 aa]	0.703 ± 0.026	0.525 ± 0.046
KTETLSVPRILT [YBR090C C-terminal 12 aa]	0.689 ± 0.01	0.722 ± 0.059
